Assay results from publication PMC4201622.

Columns and labels:
[1] = molecular target: RPA70 DBD-F (N-terminal domain) fused to MBP (UniProt P27694 1-120); assay: EMSA
[2] = molecular target: RPA heterotrimer (RPA70/RPA32/RPA14), full length (UniProt P27694;P15927;P35244 1-616;1-270;1-121); assay: EMSA
RPA heterotrimer (RPA70/RPA32/RPA14), full length, sequence (P27694 whole entry, chain 1 of 3): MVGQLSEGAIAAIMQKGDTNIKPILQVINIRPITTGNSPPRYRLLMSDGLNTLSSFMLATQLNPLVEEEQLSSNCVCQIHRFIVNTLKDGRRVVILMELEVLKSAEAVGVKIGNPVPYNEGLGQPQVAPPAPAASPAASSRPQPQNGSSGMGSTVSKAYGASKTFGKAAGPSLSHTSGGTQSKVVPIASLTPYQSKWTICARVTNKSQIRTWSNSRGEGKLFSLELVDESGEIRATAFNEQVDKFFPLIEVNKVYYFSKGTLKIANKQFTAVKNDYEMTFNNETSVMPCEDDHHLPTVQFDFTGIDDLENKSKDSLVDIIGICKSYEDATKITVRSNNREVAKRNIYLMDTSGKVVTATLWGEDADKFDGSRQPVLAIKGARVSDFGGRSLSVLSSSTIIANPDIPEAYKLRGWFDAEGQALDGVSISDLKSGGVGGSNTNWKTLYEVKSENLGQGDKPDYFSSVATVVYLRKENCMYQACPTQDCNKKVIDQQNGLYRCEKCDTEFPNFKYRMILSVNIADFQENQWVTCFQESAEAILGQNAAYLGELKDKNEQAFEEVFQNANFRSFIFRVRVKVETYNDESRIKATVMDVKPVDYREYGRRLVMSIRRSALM
RPA heterotrimer (RPA70/RPA32/RPA14), full length, sequence (P15927 whole entry, chain 2 of 3): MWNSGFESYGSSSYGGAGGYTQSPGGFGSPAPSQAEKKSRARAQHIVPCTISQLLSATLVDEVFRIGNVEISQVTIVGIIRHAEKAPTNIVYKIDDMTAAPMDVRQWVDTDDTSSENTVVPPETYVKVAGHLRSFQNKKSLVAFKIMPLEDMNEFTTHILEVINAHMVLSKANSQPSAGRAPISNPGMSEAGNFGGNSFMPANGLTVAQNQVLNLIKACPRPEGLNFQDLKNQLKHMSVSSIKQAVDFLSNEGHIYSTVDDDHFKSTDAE
RPA heterotrimer (RPA70/RPA32/RPA14), full length, sequence (P35244 whole entry, chain 3 of 3): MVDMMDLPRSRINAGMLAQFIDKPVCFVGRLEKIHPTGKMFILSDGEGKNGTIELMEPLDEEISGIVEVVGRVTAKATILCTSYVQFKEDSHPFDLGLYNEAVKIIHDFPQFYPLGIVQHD

RPA70 DBD-F (N-terminal domain) fused to MBP, sequence (P27694 1-120): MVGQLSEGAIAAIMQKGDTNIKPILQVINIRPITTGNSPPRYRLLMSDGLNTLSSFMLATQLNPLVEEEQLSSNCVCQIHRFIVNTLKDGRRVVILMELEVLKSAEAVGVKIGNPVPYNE

Question: What does the source list for TTTTTTTTTTTTTTTTTTTTTTTTTTTTTT (ssDNA) [polyT 30mer]?
Answer: binding result [1]: binds; binding result [2]: binds
